Paper PMC10374538, “Ion selectivity and rotor coupling of the Vibrio flagellar sodium-driven stator unit” (Nature Communications, 2023)

B1: Vibrio alginolyticus PomB, full length, non-cleaved (without protease insertion) (natural protein)
chain: MDDEDNKCDCPPPGLPLWMGTFADLMSLLMCFFVLLLSFSEMDVLKFKQIAGSMKFAFGVQNQLEVKDIPKGTSIIAQEFRPGRPEPTPIDVIMQQTMDITQQTLEFHEGESDRAGGTKRDEGKLTGGQSPATSTQNNESAEADMQQQQSKEMSQEMETLMESIKKALEREIEQGAIEVENLGQQIVIRMREKGAFPEGSAFLQPKFRPLVRQIAELVKDVPGIVRVSGHTDNRPLDSELYRSNWDLSSQRAVSVAQEMEKVRGFSHQRLRVRGMADTEPLLPNDSDDNRALNRRVEISIMQGEPLYSEEVPVIQ
notes: That the tag is on PomB is surmised; Only a 6.3 Å map (EMD-16214) was deposited, no model; also called full length VaPomAB
B2: Vibrio alginolyticus PomB without the peptidoglycan binding domain (PGB removed by HRV 3C protease at a site inserted between Gln95 and Gln96) (domain or fragment)
chain: MDDEDNKCDCPPPGLPLWMGTFADLMSLLMCFFVLLLSFSEMDVLKFKQIAGSMKFAFGVQNQLEVKDIPKGTSIIAQEFRPGRPEPTPIDVIMQGTLEVLFQ
notes: PomB of Vibrio alginolyticus (ATCC 17749), from the N-terminus to Gln95 (TM helix, plug motif and what follows, up to the inserted protease site); That the twin-Strep-tag sat at the C-terminus of PomB and left with the PGB domain is surmised; also called VaPomB; VaPomAB without PomB PGB; not shown: twin-Strep-tag, C-terminal, cleaved

Assays:
[1] = biological target: the molecule itself; assay: cryo-EM structure; full length, non-cleaved VaPomAB reconstituted into saposin nanodiscs with E. coli polar lipids; 6.3 Å map
[2] = biological target: the molecule itself; assay: cryo-EM structure; VaPomAB (PomB PGB removed) co-expressed and co-purified, in LMNG detergent, 20 mM HEPES pH 7.5, 300 mM NaCl, 0.0125% CHAPSO added; ~2.5 Å

| Protein | binding result [1] | stoichiometry N [2] |
| --- | --- | --- |
| B1 | binds |  |
| B2 |  | 2 |
